Laboratory results taken from patent US20230346949A1, “A METHOD OF FORMING A CONJUGATE OF A SULFONAMIDE AND A POLYPEPTIDE” (SANOFI, priority 2019, published 2023).

What was measured:
[1] = Storage stability of the activated sulfonamide; format: physicochemical; conditions: acetonitrile solution under argon, 2 to 8° C.
Method: 32.5 g 2-[2-[2-[[2-[2-[2-[[2-[[4-(16-tert-butoxy-16-oxo-hexadecoxy)phenyl]sulfonylamino]-pyrimidine-5-carbonyl]amino]ethoxy]ethoxy]acetyl]amino]ethoxy]ethoxy]acetic acid (sticky syrup) was dissolved in 305 ml dry acetonitrile. 305 ml dry ethyl acetate under an argon layer, 16.25 g (63.4 mmol) N,N-disuccinimidylcarbonat and 3.25 g (26.6 mmol) dimethylaminopyridine was added under stirring at room temperature (25° C.). After 90 minutes, the solvent was distilled off using a rotary evaporator and the remaining oily product was dissolved in 1.5 liters of ethyl acetate. The ethyl acetate solution was extracted three times, each time with 300 ml 0.1 N HCl and 300 ml saturated NaCl solution. The solvent was distilled off using a rotary evaporator, leaving again an oily product. The oily product was dissolved in 0.5 liters of ethyl acetate, the precipitated NaCl was filtered off and the ethyl acetate was distilled off. Next, 0.5 liters of ethyl acetate was added and the solvent was distilled off using a rotary evaporator. […] Yield in the acetonitrile solution was calculated from HPLC data as 78% based on the amount of 2-[2-[2-[[2-[2-[2-[[2[[4-(16-tert-butoxy-16-oxo-hexadecoxy)phenyl]sulfonylamino]-pyrimidine-5-carbonyl]amino]ethoxy]ethoxy]acetyl]amino]ethoxy]ethoxy]acetic acid used. […]

[2] = biological target: human insulin receptor isoform B (human) (UniProt P06213); assay: cell-based or functional assay
[3] = biological target: human insulin receptor isoform B (human) (UniProt P06213); assay: SPA competition with 100 pM [125I]-human insulin, membranes of CHO cells overexpressing IR

With O=C(O)CCCCCCCCCCCCCCCOc1ccc(S(=O)(=O)Nc2ncc(C(=O)NCCOCCOCC(=O)NCCOCCOCC(=O)ON3C(=O)CCC3=O)cn2)cc1 [16-[4-[[5-[2-[2-[2-[2-[2-[2-(2,5-dioxopyrrolidin-1-yl)oxy-2-oxo-ethoxy]ethoxy]ethylamino]-2-oxo-ethoxy]ethoxy]ethylcarbamoyl]pyrimidin-2-yl]sulfamoyl]phenoxy]hexadecanoate] the stability in solution [1] was “less than 3 days”.
Ala(B25)-Insulin (ligand) showed an Autophosphorylation activity (relative to human insulin) [2] of 0.2.
Ala(B25)Des(B30)-Insulin (ligand) showed an Autophosphorylation activity (relative to human insulin) [2] of 0.17.
With Glu(A14)Des(B30)-Insulin (ligand) the Autophosphorylation activity (relative to human insulin) [2] was 0.87.
“Glu(A14)Glu(B3)Ile(B16)Ile(B25)Des(B30)-Insulin (ligand)” showed an Autophosphorylation activity (relative to human insulin) [2] of 0.01.
“Glu(A14)Glu(B3)Val(B16)Des(B30)-Insulin (ligand)” showed an Insulin-receptor binding affinity (relative to human insulin) (relative to human insulin) [3] of 0.4 and an Autophosphorylation activity (relative to human insulin) [2] of 0.28.
“Glu(A14)Glu(B3)Val(B16)Val(B25)Des(B30)-Insulin (ligand)” gave an Autophosphorylation activity (relative to human insulin) [2] of 0.02.
“Glu(A14)Glu(B16)His(B25)Des(B30)-Insulin (ligand)” gave an Insulin-receptor binding affinity (relative to human insulin) (relative to human insulin) [3] of 0.01 and an Autophosphorylation activity (relative to human insulin) [2] of 0.07.
With “Glu(A14)Gly(A21)Glu(B3)Ile(B16)Trp(B25)Des(B30)-Insulin (ligand)” the Insulin-receptor binding affinity (relative to human insulin) (relative to human insulin) [3] was 0.12 and the Autophosphorylation activity (relative to human insulin) [2] was 0.13.
Compound “Glu(A14)Gly(A21)Glu(B3)Ile(B16)Val(B25)Des(B30)-Insulin (ligand)” has an Insulin-receptor binding affinity (relative to human insulin) (relative to human insulin) [3] of 0.01 and an Autophosphorylation activity (relative to human insulin) [2] of 0.02.
Compound “Glu(A14)Gly(A21)Glu(B3)Val(B16)Trp(B25)Des(B30)-Insulin (ligand)” has an Insulin-receptor binding affinity (relative to human insulin) (relative to human insulin) [3] of 0.21 and an Autophosphorylation activity (relative to human insulin) [2] of 0.19.
In the case of “Glu(A14)Gly(A21)Glu(B3)Val(B16)Val(B25)Des(B30)-Insulin (ligand)”, the Insulin-receptor binding affinity (relative to human insulin) (relative to human insulin) [3] is reported as 0.01 and the Autophosphorylation activity (relative to human insulin) [2] is reported as 0.01.
In the case of “Glu(A14)Gly(A21)Glu(B3)Val(B25)Des(B30)-Insulin (ligand)”, the Insulin-receptor binding affinity (relative to human insulin) (relative to human insulin) [3] is reported as 0.02 and the Autophosphorylation activity (relative to human insulin) [2] is reported as 0.03.
Work on “Glu(A14)Gly(A21)Trp(B16)Des(B30)-Insulin (ligand)” yielded an Insulin-receptor binding affinity (relative to human insulin) (relative to human insulin) [3] of 0.63 and an Autophosphorylation activity (relative to human insulin) [2] of 0.38.
“Glu(A14)Gly(A21)Trp(B25)Des(B30)-Insulin (ligand)” showed an Autophosphorylation activity (relative to human insulin) [2] of 0.37.
“Glu(A14)Gly(A21)Val(B16)Trp(B25)Des(B30)-Insulin (ligand)” gave an Insulin-receptor binding affinity (relative to human insulin) (relative to human insulin) [3] of 0.17 and an Autophosphorylation activity (relative to human insulin) [2] of 0.23.
In the case of “Glu(A14)His(B16)Des(B30)-Insulin (ligand)”, the Insulin-receptor binding affinity (relative to human insulin) (relative to human insulin) [3] is reported as 0.36 and the Autophosphorylation activity (relative to human insulin) [2] is reported as 0.29.
For “Glu(A14)His(B16)His(B25)Des(B30)-Insulin (ligand)”, the Insulin-receptor binding affinity (relative to human insulin) (relative to human insulin) [3] was 0.12 and the Autophosphorylation activity (relative to human insulin) [2] was 0.11.
“Glu(A14)Ile(B16)Des(B30)-Insulin (ligand)” gave an Insulin-receptor binding affinity (relative to human insulin) (relative to human insulin) [3] of 0.23 and an Autophosphorylation activity (relative to human insulin) [2] of 0.18.
Work on “Glu(A14)Ile(B16)Val(B25)Des(B30)-Insulin (ligand)” yielded an Autophosphorylation activity (relative to human insulin) [2] of 0.04.
“Glu(A14)Ile(B25)Des(B30)-Insulin (ligand)” showed an Autophosphorylation activity (relative to human insulin) [2] of 0.04.
In the case of “Glu(A14)Leu(B16)Ala(B25)Des(B30)-Insulin (ligand)”, the Insulin-receptor binding affinity (relative to human insulin) (relative to human insulin) [3] is reported as 0.01 and the Autophosphorylation activity (relative to human insulin) [2] is reported as 0.04.
Compound “Glu(A14)Val(B16)Des(B30)-Insulin (ligand)” has an Autophosphorylation activity (relative to human insulin) [2] of 0.32.
With “Glu(A14)Val(B16)Ile(B25)Des(B30)-Insulin (ligand)” the Autophosphorylation activity (relative to human insulin) [2] was 0.01.
In the case of “Glu(A14)Val(B16)Val(B25)Des(B30)-Insulin (ligand)”, the Autophosphorylation activity (relative to human insulin) [2] is reported as 0.03.
Work on “Glu(A14)Val(B25)Des(B30)-Insulin (ligand)” yielded an Autophosphorylation activity (relative to human insulin) [2] of 0.04.
With “Gly(A21)Trp(B16)Des(B30)-Insulin (ligand)” the Insulin-receptor binding affinity (relative to human insulin) (relative to human insulin) [3] was 0.57 and the Autophosphorylation activity (relative to human insulin) [2] was 0.4.
In the case of “Gly(A21)Trp(B16)His(B25)Des(B30)-Insulin (ligand)”, the Insulin-receptor binding affinity (relative to human insulin) (relative to human insulin) [3] is reported as 0.4 and the Autophosphorylation activity (relative to human insulin) [2] is reported as 0.35.
Work on “Gly(A21)Trp(B16)Trp(B25)Des(B30)-Insulin (ligand)” yielded an Insulin-receptor binding affinity (relative to human insulin) (relative to human insulin) [3] of 0.43 and an Autophosphorylation activity (relative to human insulin) [2] of 0.38.
For “His(B16)His(B25)Des(B30)-Insulin (ligand)”, the Autophosphorylation activity (relative to human insulin) [2] was 0.1.
With His(B25)Des(B30)-Insulin (ligand) the Autophosphorylation activity (relative to human insulin) [2] was 0.31.
Work on Leu(B16)Des(B30)-Insulin (ligand) yielded an Autophosphorylation activity (relative to human insulin) [2] of 0.34.
Compound Leu(B25)Des(B30)-Insulin (ligand) has an Autophosphorylation activity (relative to human insulin) [2] of 0.06.
In the case of Val(B16)Des(B30)-Insulin (ligand), the Autophosphorylation activity (relative to human insulin) [2] is reported as 0.32.
Compound Val(B25)Des(B30)-Insulin (ligand) has an Autophosphorylation activity (relative to human insulin) [2] of 0.06.
